Assay results from US20230090502.

How the values were obtained:
[1] = system: T1, Biosyn#1 (cov19) Dabcyl-TSAVLQSGFRK-EDANS
T1 sequence: TSAVLQSGFRK

[2] = system: T2, Biosyn#6 (229e) Dabcyl-YGSTLQAGLRK-EDANS
T2 sequence: YGSTLQAGLRK

[3] = system: Biosyn#7 (HRV) Dabcyl-LEALFQGP[Asp-(EDANS) SQ [Amide]

## Human Rhinovirus (HRV) 3C protease
other
  % Enz activity: 1%
  Enzymatic activity, Slope; 5 uM substrate, 150 ng/reaction enzyme: 87 RFU/min
  enzymatic activity, in words: Complete specificity (no cross reactivity) was observed for the most abundant common cold virus, HRV.
[1]
  % Enz activity: -1%
  Enzymatic activity, Slope; 5 uM substrate, 150 ng/reaction enzyme: -12 RFU/min
  enzymatic activity, in words: Complete specificity (no cross reactivity) was observed for the most abundant common cold virus, HRV.
[2]
  % Enz activity: -7%
  Enzymatic activity, Slope; 5 uM substrate, 150 ng/reaction enzyme: 44 RFU/min
  enzymatic activity, in words: Complete specificity (no cross reactivity) was observed for the most abundant common cold virus, HRV.
[3]
  % Enz activity: 100%
  Enzymatic activity, Slope; 5 uM substrate, 150 ng/reaction enzyme: 1040 RFU/min
  enzymatic activity, in words: The Biosyn #7 substrate was specific for HRV.
